Literature values as cited in US9012177B2, “Methods and compositions for improving sugar transport, mixed sugar fermentation, and production of biofuels” (The Regents of the University of California, priority 2009, dated 2015).
Like-named read-outs stand apart in the source and are kept apart here.

Details: saturated xylitol, Watanabe et al. (2005b)

B1: psXDH (protein, UniProt P22144 1-363, looked up)
D-xylulose reductase: MTANPSLVLNKIDDISFETYDAPEISEPTDVLVQVKKTGICGSDIHFYAHGRIGNFVLTKPMVLGHESAGTVVQVGKGVTSLKVGDNVAIEPGIPSRFSDEYKSGHYNLCPHMAFAATPNSKEGEPNPPGTLCKYFKSPEDFLVKLPDHVSLELGALVEPLSVGVHASKLGSVAFGDYVAVFGAGPVGLLAAAVAKTFGAKGVIVVDIFDNKLKMAKDIGAATHTFNSKTGGSEELIKAFGGNVPNVVLECTGAEPCIKLGVDAIAPGGRFVQVGNAAGPVSFPITVFAMKELTLFGSFRYGFNDYKTAVGIFDTNYQNGRENAPIDFEQLITHRYKFKDAIEAYDLVRAGKGAVKCLIDGPE
Km (NAD+): 381 µM | kcat (NAD+): 17.5 s⁻¹ | kcat (NADP+): 1.83 s⁻¹
